Target: recombinant CLEC-2, monomeric, as used in the surface plasmon resonance studies (UniProt Q9P126 55-229)
Assay: SPR

recombinant CLEC-2, monomeric, as used in the surface plasmon resonance studies, sequence (Q9P126 55-229): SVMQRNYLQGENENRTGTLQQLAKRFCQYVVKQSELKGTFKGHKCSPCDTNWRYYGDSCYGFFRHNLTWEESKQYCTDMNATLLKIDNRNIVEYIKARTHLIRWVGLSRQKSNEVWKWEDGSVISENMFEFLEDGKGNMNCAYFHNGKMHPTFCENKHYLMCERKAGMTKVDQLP

B1: recombinant podoplanin fused at its C-terminus to the human IgG1 Fc region (Fc fusion, UniProt Q86YL7 23-131, looked up)
chain: ASTGQPEDDTETTGLEGGVAMPGAEDDVVTPGTSEDRYKSGLTTLVATSVNSVTGIRIEDLPTSESTVHAQEQSPSATASNVATSHSTEKVDGDTQTTVEKDGLSTVTL
  Kd: 24.5 ± 3.7 µM

— paper PMC2749330 (The Biochemical journal, 2008)
